Legend:
[1] = molecular target: PGLYRP1-mIgG1-Fc (not stated | mouse); assay: SDS-PAGE and Western blot with or without reducing agent
[2] = molecular target: mouse IgG2a-Fc (Fc only) (mouse); assay: as above

PGLYRP1-mIgG1-Fc (Fc fusion)
stoichiometry N [1]: 2

mouse IgG2a-Fc (Fc only) (domain or fragment)
stoichiometry N [2]: 2

Source: article PMC10102533
